Results as given in a protein production outcome set (Wang et al. 2014).

Experiment: label from the status in PepcDB records

Sequence	protein production
MGKKIITISREYGSGGRQVGLTVAKKLGMEFYDKELIDAAAKEIGFPTEMIADREQRLTNSLLYNFAMGTLYGIAYPREPKVSELPLTEQIYQAQKKAIEEAAKRGSCIFVGRCADYILKSRPDVLRVFIYADRDIRKRRAIEEYGEIEEYIDEFMYQTDKRRRIHYENYTNQKWGSRENYDLMLNSGDLGLDKCVELLCEAVK	not failed
MVMMEQCAWPYIRSVRVRVGERTRAGGEFDLMGTTTRRNASAMKMVGALLALYRQAAGHTQRSLGERFVIGEQQIASIEQGRRPLKPDLAEQLDELLGTKGALSTALSKMPEVDLVPLWAEEFLDREREAIAISSYENQVLPGLLQTEAYAWAVFRSRVPFYDEDTIARLAAARIERQGILQGKEPPITCFVVWEPVVRAPIGGRTVWREQLQRLRACSELPGLMLQVLPQDRTSHAGLNGPFVLLETPEHQRLAYTENQRGSQLIADADEVAILTQKCAMLRSQALTPEDTRDLLDRLLGEQ	failed
MSADTSSLDFHPLRADLYQELHSRPFQIIPPHARVTQIAVITTPEQRTRQFEHLQKLHRLLGEPWPEQEVSCYEQSFGKLRIRREVHMEFTSYTFINLADSDADPFAETGLSLLPDGWLAQLEGTVVGAFHVEVRSSSEDARSELAFMRKHFEGMRLVGSSPQEGAARVLGSFQLHSDNFGRFMVLNHHMSNSQLGRLIQRLMEIETYRLMSLLALPVAREITPSLNDMDQQLARITQSLADNESLDEQQILAELTNIAARIEAYRAHTTFRFSATRAYHRLVLTRLEELREDEVSGHLTITEFMTRRLTPAVKTCEAVNERLEDLSRRVDRASEMMRTRVELAIQSQNQQLLSSMDRRSRIQLMMQHTVEGFSVVAISYYLIGLLKLGLDALTGTGLTINEPLVTGLAIPVVMVLVFIGIRTIHHRFIRMARRQ	failed
MSLVSLPGLPAMISEISKRNNLPTTAVEEALREALLKGYERFRRSQLMGHQFPEEYFNNFEVELDTEEEGFRVLSTKRIVEEVENSDQQISLKEVLEVAEEAQLGDEVVLDVTPEQKDFGRMAAIQTKQVLLQKLRDQQRKIIQEEFQDLEGTVLNARALRFERQSIIVAVQSSFGQPEVEAELPKREQLPNDNYRANSTFRVYLKRVREGSQRGPQLVVSRAAAGLVVDLFSVEVPEIEEEVVRIVAVAREAKPPSPSVGPRTKIAVDTLERDVDPVGACIGARGSRIHAVVNELRGEKIDVIRWSPDPATYIAQALSPARVDQVYLIHAEERHALVIVAEDQLSLAIGKEGQNVRLAARLTGWKIDIKDPETYARDKEAIEQSILERAAASAQARAEREAAEQEAQAKLEAEMAALEAEEAEELEETPEAIAEVEEEVEEWDQDQGPELGEEEELSLEHHHHHH	not failed
MSMPILLLVAVILAIYAVAYLFYGRNILQEKVVRASPERETPAIAKFDGVDYVPAHRFVLFGHHFASIAGAGPIVGPAIAMAYGWLLPLVWVLFGNVFMGAVHDYLSLMASVRYGGISIVSVGENLMGRKARYLFLIYVLFTLILVYAAFASIAASLFARDPRVATLSILFMPLALLLGIMMYRMGLGMGPSTVITVVLVIAAFVYSYNHGIVIGTFDPSLPPGEGGWVAYHRWVIILGLYALLAASLPVWYLLQPRDYLNAYILWTGLGLAAIAAILLGTQSLKGPAYTSFQPNIIAGQPTPFWPAIPLIIACGSLSGFHSLVASGTTSKQLASELDALFVGYGAMLLEGALSGLAVIIPISFAWNAPELIQKGVIENNMLDLAAVPRYAVGYGYTLAKTFEMFGVGFDTGYSFFTLFASLMLSMYVLTTLDTGTRLARFAWQELFDWLANVDKNLYSIVTNKWVSSLAVVIIGSALAYPVLEIGAGYKAAYNVVWPAFAGANQMLAAIALLTSALWVYGVLNVRGGTGLLILLPSLFLWVTVTAGLTWWLMVILPVLPAIQQFGAGSMILFTLLLSLLLFALFIINFNKLSKQAGASQQAQA	failed
MKYNKDGQTFLLVLDKGEDIVEVLTQFAMEQEMKFGSVSGIGACDNVTLIFYNLDTQKYESREVNEALELTSLLGNISHIDDKPFAHLHGTFGTRDFQTLSGHLTKAVVSATAEIVIQMTNLDVNRTHDEETGLNLLRP	failed
MKEKEYLFSLDMKVRDYECDLQGVVNNSNYQRYMEHTRHEFWESLGDNFGQMHEKGLDAFVYKVTITFKQSLRSGDRFRSCLTCHKKGPKLIFMQDIIREDGVMAARGEVEVVAVQDGVLTRGEYFDVLMKDILSKTTKLEHHHHHH	not failed
MSLTPRNATVAVIGAGDYIGAEIAKKFAAEGFTVFAGRRNGEKLAPLVAEIEAAGGRIVARSLDARNEDEVTAFLNAADAHAPLEVTIFNVGANVNFPILETTDRVFRKVWEMACWAGFVSGRESARLMLAHGQGKIFFTGATASLRGGSGFAAFASAKFGLRAVAQSMARELMPKNIHVAHLIIDSGVDTAWVRERREQMFGKDALANPDLLMPPAAVAGAYWQLYQQPKSAWTFEMEIRPYGEGHHHHHH	not failed
MAFDLQEQEQIDSLKAFWQQWGKLIGGAVLAVSLGYLGYKAYGMYQRGQSEKAAAAYEAVDDAVAAKDIAKLKSAAQQLQGEYAGTLYASRAALVLAKAAFDKNDPALAASQLEWVLKNGKDEELQAIARLRLASLLLDQKKFDGAIGELNQAHPAAFDAEFLELKGDVFVAKGDSNGARDAYKAALAKMQGESPNRQLVQTKLDALGG	failed
MEITDVRLRRVETDGRMKAISSITIDGEFVIHDIRVIDGNEGLFVAMPSKRTPDGEFRDIAHPINSGTRAKIQEAVLAAYEVADEPAVNEESSADESVVEEN	failed
MKETHNSQDRLAYLKQQLPADITRSVIDTLKEDLGGTLDPAADITASLIPADRISTATIITREAGVFCGQLWADEVFKQLGGQVSIEWHVQDGDTLTPNQTLCTLTGPARILLTGERNAMNFIQTLSGCATATARYVQELKGTQCRLLDTRKTIPGLRSALKYAVACGGGYNHRIGVFDAYLIKENHIIACGGIRQAISTAKQLNPGKPVEVETETLAELEEAISAGADIIMLDNFSLEMMREAVKINAGRAALENSGNITLDNLKECAETGVDYISVGALTKHLKALDLSMRFKS	not failed
MLLRKGTVYVLVIRADLVNAMVAHARRDHPDEACGVLAGPEGSDRPERHIPMTNAERSPTFYRLDSGEQLKVWRAMEDADEVPVVIYHSHTATEAYPSRTDVKLATEPDAHYVLVSTRDPHRHELRSYRIVDGAVTEEPVNVVEQYLEHHHHHH	failed
RLKLLYDAGLGIGTTLDVLRTADELAQVAVPRFADFVTVDLADAVLHGEEPAPTATDLRRTAVCGIRDDHPLYELGQLIDFLPSTPQARGYGSGYSELVTDLSTATGWHAQDPERTKAIIDYGIHSLIAAPIQARGVVLGMANFWRSKQHEPFVEEEMSLAEELVARAAVSIDNARRYTREHALAVTLQRSL	not failed
MADVVVGIQWGDEGKGKIVDRIAKDYDFVVRYQGGHNAGHTIVHKGVKHSLHLMPSGVLYPKCKNIISSAVVVSVKDLCEEISAFEDLENRLFVSDRAHVILPYHAKKDAFKEKSQNIGTTKKGIGPCYEDKMARSGIRMGDLLDDKILEEKLNAHFKAIEPFKKAYDLGENYEKDLMGYFKTYAPKICPFIKDTTSMLIEANQKGEKILLEGAQGTLLDIDLGTYPFVTSSNTTSASACVSTGLNPKAINEVIGITKAYSTRVGNGPFPSEDTTPMGDHLRTKGAEFGTTTKRPRRCGWLDLVALKYACALNGCTQLALMKLDVLDGIDAIKVCVAYERKGERLEIFPSDLKDCVPIYQTFKGWEKSVGVRKLDDLEPNVREYIRFIEKEVGVKIRLISTSPEREDTIFL	failed
MSLDFRSADFLRTHISDTMAFYHPRCIDSAGGFFHYFRDDGSIYNATHRHLVSSTRFVFNYAMAYLQFGTAEYLDAVHHGLSYVRDVHRNPATGGYAWTLCDDRVEDDTNHCYGLAFVMLAYSCGLKVGIKQAREWMDETWCLLERHFWDAEYGLYKDEADAQWNFTRYRGQNANMHMCEAMLAAYEASGEQRYLERALVLADRITRRQAAKADGLVWEHYDMRWEVDWDYNRDNPKHLFRPWGFQPGHQTEWAKLLLILDRYIEVEWLVPVARSLFDVAVARSWDAVRGGLCYGFAPDGTICDDDKYFWVQAESLAAAALLATRSGDERYWQWYDRLWAYAWQHMVDHRYGAWYRLLDGDNRKYNDEKSPAGKTDYHTMGACHEVLNVVWTKSEGHHHHHH	not failed
MRRQELARQCGERSKKDNKKGSAKAKKMEQMRNESRASTPSKDSNTSQSTASSTPTTSAGPGSKSEAGSTGTTTTNSTANSTTSRAHRKSTQSTPSTARPGTPSDKKEDPAAAETTEEEGPVAPKKKRMSEQRPSLTGSDVAEKPLPPTT	failed
MLTQFLNLLATIISVISLLIVTYGALIAIISFIINELKRVTGAYTPTNIRKLRAVFGTYLLLGLEFLIASDILKTVLEPTMNELIILGGIVVVRTILSVFLNKEIKELETENN	failed
MLGYVWLVEGRELMRWQELCTPAVICVGGVDPSAGAGITADVRTAENMGVRAYTVATAITFQGSGSYRGERWVDSADIIRQIESLSAEMEPAVAKIGLIRDSDTLSLVVDCLKKVFPSIRIVWDPVLRASADSSAGQADRFNLEDITALSRIDFITPNLPEARHLLGCEPDDETLLDFYRRSGVGLVLKGGHAGESVVTDRIVYDGRCEALRLLRGGTGKHGTGCAHSTAFAAALALEQEPFTAAGMAQLYVSRLRERASGLLAMHKDLPVDPVVRLMSEIDLQFITHRQPDLSELEEAEAVCRIGVRWVQLRMKEASDEEMLHTACAVKAVCRHHGALFVVNDRVEIARQVDADGVHLGKEDMAIVEARRILGSNKIIGRTCNTMEDVRRAYAEGADYVGIGPYRYTETKQRLAPVLGLEGYKAIAACMQAEGIRLPAFAIGGIEDADIPLIRDCGIGGIAVSGSLIRKIKKNLEHHHHHH	failed
MKVLILGGGYTGQRLAQLLAAQSIPVLATTRSGQWPLDEPCVTFDAGSTPLLLPDPAALAGVTHVLSTIPPLGDGGDPVLSTLLPTLQYLSLQWCGYLSTTGVYGDTQGAWVDEDSPLQSTNRRSQQRIAIEAQWLASGLPAHIFRLPGIYGPGRSSFDRLRRGDNQRLLKPGHVFCRIHVDDIAAALWASLQQPNPGRIYNVSDDFPCEPALLIEAAAQLMGVELPPPLPVDAVELSPMAASFWSECRRVRNDRLKQELGVQLRYPSYREGLAAIWAAELEHHHHHH	failed
MRSTTSTLMLIKKTAIAVSLAVGSMVISGCDTNEVAKEISQPTIRPALTEIVSPSANAQLRFNGVVRSAQRADLAFRMSSRVISVLVDEGQQVKKGQLLAQLDPRDAQTALESARVEYKNSKAEYTRGKAIYEKSQAIAKSDLDTLTTRYQLAKNRLDEAQRQLEYTQLHAPFDGVIGKKMIDNHVQIQANSPVLTVHNVDDLEVLINIPDSVMLGDLKGSKALAQISALRNETFPLVLSTYGTQADPITQTYPVVLTFEDLRGFNVLPGMTVKVVPVYSDEQDQASLLITVPLTAVVPDNQGGQFVWVVTQENKVQKRIISAGTLVSNRIVINDGLQTGERIITAGASSLKEGMEVRPYTDTLSSQVEK	failed
MRVYDMHVHLHEYSDREVEEILDADKSLVVVAVSDDLESAWRTLDLWHTFGGRVVPCLGFHPWNVREGRVWEAWEVLRLAYRYGVPCLGEVGLDRRFVDEYTWRVQNEVFDAFVQLAEDMGVMLNIHAPDAWKHVAHRIGWTSRARFMYHWYTGPATLPRALPEGRVWFSINSAIRVQEKSVRVAREIPLRSLVVESDGPYNYRGLRLSPLMVRETVKLVAEARGEDPGRLMEAISLNSERLLGLL	failed
SSISQQTIAETDGDSAGSDSFPVGRTHHRWYLCHFGQSLIHVIQVVIGYFIMLAVMSYNTWIFLGVVLGSAVGYYLAYPLLSTA	failed
